Test results from patent US20220064254A1 (Janssen / Centocor, published 2022).

Legend:
[1] = target: hK2 on target cells (VCaP, LNCaP/hK2, LNCaP, C4-2B) (human, UniProt P20151 19-261); assay: cell-based or functional assay
[2] = target: T1, biotinylated recombinant hK2 protein (human, UniProt P20151 25-261, biotin label (EZ-Link Sulfo-NHS-LC-Biotin)); assay: flow cytometry; primary human T cells lentivirally transduced with the CAR (MOI 3), day 14, stained with biotinylated hK2 (1 ug/ml) then streptavidin-PE; UTD control gate 0.065
T1 construct: In-house biotin-labelled recombinant hK2 used as the flow cytometry reagent; also called biotinylated hK2; Biotin-Hk2 protein

[3] = target: T1, biotinylated recombinant hK2 protein; assay: flow cytometry; CAR-transduced JNL cells stained with biotinylated hK2 and streptavidin-PE

T1 sequence (P20151 25-261): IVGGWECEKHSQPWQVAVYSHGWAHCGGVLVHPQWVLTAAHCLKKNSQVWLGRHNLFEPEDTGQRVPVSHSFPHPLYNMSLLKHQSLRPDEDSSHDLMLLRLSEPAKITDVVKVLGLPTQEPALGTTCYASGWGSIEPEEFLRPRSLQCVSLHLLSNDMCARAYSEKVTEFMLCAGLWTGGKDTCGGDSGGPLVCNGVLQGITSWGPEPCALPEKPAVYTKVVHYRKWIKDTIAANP
Chain of hK2 on target cells (VCaP, LNCaP/hK2, LNCaP, C4-2B) (P20151 19-261): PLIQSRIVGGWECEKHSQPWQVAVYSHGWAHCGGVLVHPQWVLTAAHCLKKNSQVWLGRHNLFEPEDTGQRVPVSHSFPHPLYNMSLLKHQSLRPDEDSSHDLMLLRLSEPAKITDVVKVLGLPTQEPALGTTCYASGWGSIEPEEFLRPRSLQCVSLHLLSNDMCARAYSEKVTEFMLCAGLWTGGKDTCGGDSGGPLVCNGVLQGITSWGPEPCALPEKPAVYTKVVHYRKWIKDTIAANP

percent of CD3+ T cells in the PE-positive gate (hK2 CAR) [2]: 59.9%
% of JNL cells stained with biotinylated hK2 (reported as CAR expression) [3]: 50.8%
B1: CAR20 (KL2B359_LH) (other)
chain: EIVLTQSPATLSLSPGERATLSCRASESVEYFGTSLMHWYQQKPGQPPRLLIYAASNVESGIPARFSGSGSGTDFTLTISSVEPEDFAVYFCQQTRKVPYTFGGGTKVEIKGGSEGKSSGSGSESKSTGGSQVQLQESGPGLVKPSQTLSLTCTVSGNSITSDYAWNWIRQFPGKRLEWIGYISYSGSTTYNPSLKSRVTISRDTSKNQFSLKLSSVTAADTAVYYCATGYYYGSGFWGQGTLVTVSSTSTPAPRPPTPAPTIASQPLSLRPEACRPAAGGAVHTRGLDFACDIYIWAPLAGTCGVLLLSLVITLYCKRGRKKLLYIFKQPFMRPVQTTQEEDGCSCRFPEEEEGGCELRVKFSRSADAPAYKQGQNQLYNELNLGRREEYDVLDKRRGRDPEMGGKPRRKNPQEGLYNELQKDKMAEAYSEIGMKGERRRGKGHDGLYQGLSTATKDTYDALHMQALPPR
notes: also called KL2B359 LH CAR; rehumanized 11B6 LH CAR
tumor cell growth inhibition (TGI, %) of hK2 positive VCaP cells, real-time IncuCyte killing assay, 96 hours [1]: ~100%
